Assay results as given in the supplement of paper PMC7877785.
± gives the uncertainty stated by the source.

Experiment: self-splicing fitness, log relative to wild type (ln ratio); higher = more splicing; Tetrahymena group I intron in knt gene, E. coli kanamycin selection, DiMSum; sequences stand for … in CUCUCU…GGAGGGAAAAGUUAUCAGGCAUGCACCUGGUAGCUAGUCUUUAAACCAAUAGAUUGCAUCGGUUUAAAAGGCAAGACCGUCAAAUUGCGGGAAAGGGGUCAACAGCCGUUCAGUACCAAGUCUCAGGGGAAACUUUGAGAUGGCCUUGCAAAGGGUAUGGUAAUAAGCUGACGGACAUGGUCCUAACCACGCAGCCAAGUCCUAAGUCAACAGAUCUUCUGUUGAUAUGGAUGCAGUUCACAGACUAAAUGUCGGUCGGGGAAGAUGUAUUCUUCUCAUAAGAUAUAGUCGGACCUCUCCUUAAUGGGAGCUAGCGGAUGAAGUGAUGCAACACUGGAGCCGCUGGGAACUAAUUUGUAUGCGAAAGUAUAUUGAUUAGUUUUGGAGUACUCGUGGUCG
How it was run: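 Library with all eight P1ex-region intron nucleotides randomised, intron inside the knt kanamycin-resistance gene on pET-22b(+), in E. coli BL21(DE3). Cells grew overnight at 37°C or 30°C on LB agar with or without 25 μg/mL kanamycin (plus 100 μg/mL carbenicillin, 50 μM IPTG, 0.2% rhamnose), in six replicate transformations. Pooled colonies were amplicon-sequenced on Illumina HiSeq 2500. DiMSum fitness is the error-weighted combination of wild-type-normalised replicate fold changes, kanamycin versus none.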

| Sequence | self-splicing fitness (ln) (30 °C) | self-splicing fitness (ln) (37 °C) |
| --- | --- | --- |
| CCAGAGCAAUAUUACGCCGU | -4.04 ± 0.48 | – |
| CCAGAGCAAUAUUACGCGAU | – | -2.21 ± 0.33 |
| CCAGAGCAAUAUUACGGCAA | -2.25 ± 0.38 | -2.28 ± 0.3 |
| CCAGAGCAAUAUUACGGUAA | -2.75 ± 0.22 | -2.33 ± 0.26 |
| CCAGAGCAAUAUUACGGUGA | -3.55 ± 0.2 | -2.6 ± 0.23 |
| CCAGAGCAAUAUUACGUCAG | -2.58 ± 0.12 | -1.6 ± 0.15 |
| CCAUAGCAAUAUUACGAAAA | -3.02 ± 0.29 | – |
| CCAUAGCAAUAUUACGAAUG | -2.11 ± 0.08 | -1.15 ± 0.095 |
| CCAUAGCAAUAUUACGACAA | -3.06 ± 0.41 | -2.94 ± 0.35 |
| CCAUAGCAAUAUUACGAGCC | -4.57 ± 0.45 | -2.16 ± 0.36 |
| CCAUAGCAAUAUUACGAUCC | -3.2 ± 0.35 | -1.43 ± 0.41 |
| CCAUAGCAAUAUUACGAUUC | -3.64 ± 0.25 | -2.89 ± 0.41 |
| CCAUAGCAAUAUUACGCAUC | -3.39 ± 0.27 | -2.31 ± 0.3 |
| CCAUAGCAAUAUUACGCCAA | -2.76 ± 0.43 | -1.58 ± 0.25 |
| CCAUAGCAAUAUUACGCGAU | -2.56 ± 0.27 | -2.91 ± 0.43 |
| CCAUAGCAAUAUUACGCGGC | -4.01 ± 0.35 | -2.87 ± 0.43 |
| CCAUAGCAAUAUUACGCGUC | -3.04 ± 0.33 | -4.21 ± 0.46 |
| CCAUAGCAAUAUUACGCUAA | -3.38 ± 0.22 | -2.75 ± 0.32 |
| CCAUAGCAAUAUUACGCUAG | -3.8 ± 0.47 | -1.82 ± 0.23 |
| CCAUAGCAAUAUUACGCUCC | -2.97 ± 0.49 | – |
| CCAUAGCAAUAUUACGGCAA | -3.37 ± 0.28 | -2.9 ± 0.3 |
| CCAUAGCAAUAUUACGGCGA | -2.03 ± 0.26 | -1.92 ± 0.23 |

| Sequence | self-splicing fitness (ln) (30 °C) | self-splicing fitness (ln) (37 °C) |
| --- | --- | --- |
| CCAUAGCAAUAUUACGGCUU | -3.97 ± 0.31 | -2.19 ± 0.2 |
| CCAUAGCAAUAUUACGGGAU | -3.65 ± 0.23 | -2.86 ± 0.24 |
| CCAUAGCAAUAUUACGGUUG | -1.43 ± 0.082 | -0.827 ± 0.12 |
| CCAUAGCAAUAUUACGUAUU | -3.88 ± 0.19 | -2.64 ± 0.21 |
| CCAUAGCAAUAUUACGUGCA | -2.77 ± 0.19 | -3.02 ± 0.24 |
| CCAUAGCAAUAUUACGUUCG | -0.579 ± 0.08 | -0.674 ± 0.1 |
| CCCAAGCAAUAUUACGAAAA | -2.96 ± 0.21 | -2.1 ± 0.22 |
| CCCAAGCAAUAUUACGAAAU | -3.19 ± 0.25 | -2.35 ± 0.18 |
| CCCAAGCAAUAUUACGAACG | -3.72 ± 0.25 | -3.46 ± 0.2 |
| CCCAAGCAAUAUUACGAAUC | -2.81 ± 0.24 | -2.36 ± 0.27 |
| CCCAAGCAAUAUUACGAAUG | -3.88 ± 0.22 | -2.8 ± 0.18 |
| CCCAAGCAAUAUUACGACCU | -3.38 ± 0.26 | -2.44 ± 0.25 |
| CCCAAGCAAUAUUACGCAAU | -4.46 ± 0.31 | -1.16 ± 0.17 |
| CCCAAGCAAUAUUACGCACC | – | -2.31 ± 0.33 |
| CCCAAGCAAUAUUACGCAGA | -2.74 ± 0.21 | -2.72 ± 0.14 |
| CCCAAGCAAUAUUACGCAUC | – | -1.32 ± 0.21 |
| CCCAAGCAAUAUUACGCGAU | -3.93 ± 0.21 | -2.5 ± 0.19 |
| CCCAAGCAAUAUUACGCGCC | – | -1.59 ± 0.34 |
| CCCAAGCAAUAUUACGCGGA | -1.6 ± 0.093 | -0.459 ± 0.097 |
| CCCAAGCAAUAUUACGCUAC | -4.17 ± 0.39 | -3.04 ± 0.38 |
| CCCAAGCAAUAUUACGGAAU | -3.88 ± 0.26 | -2.94 ± 0.22 |
| CCCAAGCAAUAUUACGGGAU | -3.41 ± 0.096 | -2.47 ± 0.12 |
